Results taken from the Immune Epitope Database (IEDB).

Experiments:
HLA-A*30:01 = test: IEDB peptide-MHC binding, purified MHC/competitive/radioactivity; filed as Kd, often an IC50 or EC50 that approximates it; ≥ and ≤ were set here for values at or beyond the usual limits of such assays
HLA-A*69:01 = test: IEDB peptide-MHC binding, purified MHC/direct/fluorescence; filed as Kd, often an IC50 or EC50 that approximates it; ≥ and ≤ were set here for values at or beyond the usual limits of such assays
HLA-A*02:03 = test: IEDB peptide-MHC binding, purified MHC/competitive/radioactivity; filed as Kd, often an IC50 or EC50 that approximates it; ≥ and ≤ were set here for values at or beyond the usual limits of such assays
HLA-A*02:02 = test: as above
HLA-A*02:06 = test: as above
HLA-A*02:01 = test: IEDB peptide-MHC binding, purified MHC/direct/fluorescence; filed as Kd, often an IC50 or EC50 that approximates it; ≥ and ≤ were set here for values at or beyond the usual limits of such assays
HLA-A*68:01 = test: IEDB peptide-MHC binding, purified MHC/competitive/radioactivity; filed as Kd, often an IC50 or EC50 that approximates it; ≥ and ≤ were set here for values at or beyond the usual limits of such assays
HLA-A*33:01 = test: as above
HLA-A*31:01 = test: as above
HLA-A*03:01 [1] = test: as above
HLA-A*11:01 = test: as above
HLA-A*03:01 [2] = test: IEDB peptide-MHC binding, purified MHC/direct/fluorescence; filed as Kd, often an IC50 or EC50 that approximates it; ≥ and ≤ were set here for values at or beyond the usual limits of such assays; details: source organism: Francisella tularensis subsp. holarctica OSU18
HLA-B*15:01 = test: as above
HLA-B*40:01 = test: as above
HLA-A*01:01 = test: as above
[3] = source organism: Vaccinia virus WR
[4] = source organism: Dengue virus 1 Singapore/S275/1990
[5] = source organism: Entamoeba histolytica HM-1:IMSS
[6] = source organism: Dengue virus 3 Martinique/1243/1999
[7] = source organism: Mycobacterium tuberculosis
[8] = source organism: Mammarenavirus whitewaterense
[9] = source organism: Lymphocytic choriomeningitis virus (strain Armstrong)
[10] = source organism: Listeria monocytogenes
[11] = source organism: Dengue virus 4 Philippines/H241/1956
[12] = source organism: SARS coronavirus Tor2
[13] = source organism: Dengue virus 2 Jamaica/1409/1983
[14] = source organism: Dengue virus 1 Brazil/97-11/1997
[15] = source organism: Mammarenavirus brazilense
[16] = source organism: Mammarenavirus guanaritoense
[17] = source organism: Encephalitozoon cuniculi

Sequence	Kd (HLA-A*02:03; [3]) [nM]	Kd (HLA-A*02:02; [3]) [nM]	Kd (HLA-A*02:06; [3]) [nM]	also measured
ASKFVYVSV				Kd (HLA-A*30:01; [3]): 3.09 nM
ATHKAPQPA				Kd (HLA-A*69:01; source organism: Haemophilus influenzae): 3820 nM
AVKSEHTGK				Kd (HLA-A*30:01; [4]): 64.3 nM
DLNAVTTNNL	1630	1830	7520	
DTSPTKRCRL	≥ 37100	12200	≥ 44700	
DVEKRILNT	6720	5820	≥ 77100	
DVFRPLFDFV	2570	1020	232	
DVGCLLTDTI	15600	10700	9990	
EINPFYQDV				Kd (HLA-A*69:01; [5]): 7.6 nM; Kd (HLA-A*02:01; [5]): 19500 nM
EQGDIALAL	11100	701	4770	
EQYTCNKPYT	3010	14000	≥ 45700	
ESRTIRVLK				Kd (HLA-A*30:01; [6]): 8.81 nM; Kd (HLA-A*68:01; [6]): 237 nM
EVIERINLLV	3330	19700	300	
EVTPEYIKDL	2270	1520	7670	
FLHGGDFGV				Kd (HLA-A*69:01; [7]): 690 nM
FLLRGPFEAS				Kd (HLA-A*02:03; [8]): 83.5 nM; Kd (HLA-A*02:02; [8]): 27.1 nM; Kd (HLA-A*02:06; [8]): 70.3 nM
FLTGTFVTA	0.712	4.69	2.05	
FLYGWLFIL				Kd (HLA-A*02:01; source organism: Francisella tularensis subsp. tularensis): 102 nM
FTKDGKLDDT	187	145	898	
FTNDSIISH				Kd (HLA-A*30:01; [9]): ≥ 45500 nM; Kd (HLA-A*33:01; [9]): 342 nM; Kd (HLA-A*31:01; [9]): 1990 nM; Kd (HLA-A*68:01; [9]): 81.9 nM; Kd (HLA-A*03:01 [1]; [9]): 303 nM
GILIYDDNI	1700	11700	13300	
GLYEWISEQ				Kd (HLA-A*69:01; [10]): ≥ 20000 nM; Kd (HLA-A*02:01; [10]): 177 nM
GSRKSSSIL				Kd (HLA-A*30:01; source organism: Vaccinia virus Copenhagen): 1.58 nM
GVLPEETNI	≥ 20400	17300	573	
HVLLPFYET	18600	16400	1740	

Sequence	Kd (HLA-A*02:03; [3]) [nM]	Kd (HLA-A*02:02; [3]) [nM]	Kd (HLA-A*02:06; [3]) [nM]	also measured
HVLLPFYETL	213	29.4	115	
HVSISSCNG				Kd (HLA-A*30:01; [3]): 502 nM
IALCKVTVPT	2220	1950	652	
IICEDAMYYA	108	24	8.78	
ILQMREIIT	1340	4100	1230	
INRFTMRHK				Kd (HLA-A*30:01; source organism: Dengue virus 2 Peru/IQT2913/1996): 1110 nM
ITDNGPMPYM	1180	828	303	
KAKRGTAQI				Kd (HLA-A*30:01; [4]): 289 nM
KAKWLTPFE				Kd (HLA-A*30:01; [3]): 667 nM
KFRPLMIFM				Kd (HLA-A*30:01; [3]): 1.8 nM
KIKAGPRYV				Kd (HLA-A*30:01; [3]): 6.93 nM
KIKLILANK				Kd (HLA-A*30:01; [3]): 109 nM; Kd (HLA-A*33:01; [3]): ≥ 25600 nM; Kd (HLA-A*11:01; [3]): 146 nM; Kd (HLA-A*31:01; [3]): 1.46 nM; Kd (HLA-A*68:01; [3]): ≥ 28300 nM; Kd (HLA-A*03:01 [1]; [3]): 21.6 nM
KIKQTGINNV	3.12	237	2550	
KILAKAIFK				Kd (HLA-A*30:01; [11]): 292 nM; Kd (HLA-A*11:01; [11]): 79.3 nM; Kd (HLA-A*03:01 [1]; [11]): 11.9 nM
KMLEASTIY				Kd (HLA-A*03:01 [2]): 190 nM
KMQRMLLEK				Kd (HLA-B*15:01; source organism: SARS-CoV1): ≥ 40300 nM; Kd (HLA-A*33:01; [12]): 13700 nM; Kd (HLA-A*31:01; [12]): 19 nM; Kd (HLA-A*68:01; [12]): 1380 nM
KQLEWKWGI				Kd (HLA-A*69:01; [5]): 23.2 nM; Kd (HLA-A*02:01; [5]): 0.7 nM
KSHTLWSNG				Kd (HLA-A*30:01; [13]): 425 nM
KTPLYYLSGT	3110	≥ 21900	1420	
KVKKRYPEF				Kd (HLA-A*30:01; [3]): 103 nM
KVVRVQRPA				Kd (HLA-A*30:01; [14]): 61.4 nM
LAAVSVSPLL				Kd (HLA-A*30:01; [13]): 6020 nM
LALLAAFKVR				Kd (HLA-A*30:01; [13]): 74.8 nM
LEDSHNGKL				Kd (HLA-B*40:01; source organism: Influenza A virus (A/Denver/1957(H1N1))): 73 nM
LISLINSLV	0.478	0.478	72.4	

Sequence	Kd (HLA-A*02:03; [3]) [nM]	Kd (HLA-A*02:02; [3]) [nM]	Kd (HLA-A*02:06; [3]) [nM]	also measured
LLKCVSDSWL	118	75.5	4730	
LLNVQTLISL	16.1	23.7	96.7	
LLWFLTGTFV	9.18	2.42	18	
LMLHNPTSET	4480	≥ 39300	11100	
LMTLDDLAI	75.8	51.7	288	
LRFLTIPPTA				Kd (HLA-A*30:01; [13]): 951 nM
LRYFIMAYV				Kd (HLA-A*02:03; [15]): 395 nM; Kd (HLA-A*02:02; [15]): 213 nM; Kd (HLA-A*02:06; [15]): ≥ 20100 nM
LTPFEKEFT	≥ 20900	16800	≥ 77100	
LTSNCTRTT	≥ 29600	≥ 77800	≥ 40400	
LTSVDIETA	11500	4920	311	
LVMDKNHAI	770	19	103	
LVQYRILPMI	1200	12500	712	
MGRFGYVPY				Kd (HLA-A*30:01; [3]): 14.8 nM
MISTYPGNT	229	5490	≥ 25700	
MLLTFLTSLL				Kd (HLA-A*02:03; [12]): 7.34 nM; Kd (HLA-A*02:02; [12]): 0.734 nM; Kd (HLA-A*02:06; [12]): 24.6 nM
MLNRVQILM	26.9	4.75	2560	
MRRERAAYV				Kd (HLA-A*30:01; [3]): 21.8 nM
MTFGDIPLV				Kd (HLA-A*30:01; [3]): 235 nM
NIDSIMSMM	874	25	4720	
NIFMTLVPV	6.38	86.2	227	
NVGRILGYV				Kd (HLA-A*69:01; [5]): 3.7 nM; Kd (HLA-A*02:01; [5]): 146 nM
NVMAADPPK				Kd (HLA-A*01:01; source organism: Yersinia pestis): ≥ 20000 nM
QLVFNSISA	1560	4800	3780	
QMDGAILVV				Kd (HLA-A*69:01; source organism: Brucella abortus 2308): 3440 nM
RALKAYFTA	204	2350	13.7	Kd (HLA-A*30:01; [3]): 66.1 nM

Sequence	Kd (HLA-A*02:03; [3]) [nM]	Kd (HLA-A*02:02; [3]) [nM]	Kd (HLA-A*02:06; [3]) [nM]	also measured
RARNRVSTG				Kd (HLA-A*30:01; [14]): 180 nM
RIYCSLFKNV	29.6	913	7.1	
RLKRMAISG				Kd (HLA-A*30:01; [14]): 138 nM
RTKLMSNIK				Kd (HLA-A*30:01; [3]): 0.38 nM; Kd (HLA-A*33:01; [3]): ≥ 56800 nM; Kd (HLA-A*11:01; [3]): 29.4 nM; Kd (HLA-A*31:01; [3]): 4.49 nM; Kd (HLA-A*68:01; [3]): 778 nM; Kd (HLA-A*03:01 [1]; [3]): 23.6 nM
RTRPRWIPA				Kd (HLA-A*01:01; [7]): ≥ 20000 nM
SEILPFTVL				Kd (HLA-B*40:01; source organism: Mycobacterium tuberculosis variant bovis): 14.7 nM
SLEATFIDV	80.4	34.9	10.3	
SLLRNDVPMA				Kd (HLA-A*30:01; [6]): 2480 nM
SLVKPTVYV				Kd (HLA-A*02:03; [12]): 37.2 nM; Kd (HLA-A*02:02; [12]): 108 nM; Kd (HLA-A*02:06; [12]): 473 nM
SMYVIPDEL	13.4	5.02	2820	
SQKTTWLPV				Kd (HLA-A*30:01; [14]): 15.1 nM; Kd (HLA-A*02:06; [14]): 175 nM
STQQNKLVI	14400	≥ 53000	≥ 77100	
TIILNKIVQL	≥ 49300	1760	30.4	
TLIDFYLCFL				Kd (HLA-A*02:03; [12]): 3.57 nM; Kd (HLA-A*02:02; [12]): 0.0405 nM; Kd (HLA-A*02:06; [12]): 3.01 nM
TLIQYRQQL	410	128	1880	
TQFESLKIY				Kd (HLA-B*15:01; source organism: Influenza A virus (A/Chicken/Nanchang/2-220/2001(H3N6))): 211 nM
TVEFDRDKVV	1600	16200	≥ 30800	
VAEHRFENM	7160	7130	≥ 47900	
VCFWSTLFYV				Kd (HLA-A*02:03; [8]): 7010 nM; Kd (HLA-A*02:02; [8]): 348 nM; Kd (HLA-A*02:06; [8]): 1130 nM
VMRSRWSRK				Kd (HLA-A*30:01; [14]): 10.8 nM; Kd (HLA-A*03:01 [1]; [14]): 4.86 nM
YCNYTRFWYI				Kd (HLA-A*02:03; [16]): 4340 nM; Kd (HLA-A*02:02; [16]): 1050 nM; Kd (HLA-A*02:06; [16]): 81.4 nM
YLWFKRHVY				Kd (HLA-A*69:01; [17]): 3240 nM; Kd (HLA-A*02:01; [17]): 4010 nM
YVILKDPRI	203	1550	11.7	
